Measurements reported in patent publication US20040229250A1 (SHIRE HUMAN GENETIC THERAPIES, published 2004).

Tests used:
[1] = target: T1, Formylglycine Generating Enzyme (FGE) purified from bovine testis microsomes (reticuloplasm) (bovine, UniProt Q0P5L5 34-374, N-glycosylated (bound to Concanavalin A)); assay: affinity chromatography, peptide on Affigel 10, FGE from bovine testis
T1 construct: mature; Native enzyme at several stages of purification (microsome extract, MonoQ pool, ConA eluate); also called bovine FGE; FGE activity
T1 sequence (looked up): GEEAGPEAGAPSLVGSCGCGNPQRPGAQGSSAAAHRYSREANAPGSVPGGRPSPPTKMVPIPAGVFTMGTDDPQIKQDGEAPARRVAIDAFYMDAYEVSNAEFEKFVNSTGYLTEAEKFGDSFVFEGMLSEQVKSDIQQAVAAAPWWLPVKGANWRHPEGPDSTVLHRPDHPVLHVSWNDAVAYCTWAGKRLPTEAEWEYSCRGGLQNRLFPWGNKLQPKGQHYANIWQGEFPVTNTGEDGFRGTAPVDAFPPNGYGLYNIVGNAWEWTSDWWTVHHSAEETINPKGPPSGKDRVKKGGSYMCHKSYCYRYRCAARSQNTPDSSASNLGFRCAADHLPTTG
Excerpt: (§1) For purification of FGE the soluble fraction (reticuloplasm) of bovine testis microsomes served as the starting material. The specific activity of FGE was 10-20 times higher than that in reticuloplasm from bovine pancreas microsomes (Fey et al., J. Biol. Chem., 2001, 276:47021-47028). Purification of FGE was achieved by a combination of four chromatographic steps. The first two steps were chromatography on a MonoQ anion exchanger and on Concanavalin A-Sepharose. At pH 8 the FGE activity bound to MonoQ and was eluted at 50-165 mM NaCl with 60-90% recovery. When this fraction was mixed with Concanavalin A-Sepharose, FGE was bound. 30-40% of the starting activity could be eluted with 0.5 M a-methyl mannoside. The two final purification steps were chromatography on affinity matrices derivatized with 16mer peptides. The first affinity matrix was Affigel 10 substituted with a variant of the ASA65-80 peptide, in which residues Cys69, Pro7l and Arg73, critical for FGly formation, were scrambled (scrambled peptide […] -SEQ ID NO:34). […] Chromatography on the scrambled peptide affinity matrix removed peptide binding proteins including chaperones of the endoplasmic reticulum. The second affinity matrix was Affigel 10 substituted with a variant of the ASA65-80 peptide, in which the Cys69 was replaced by a serine (Ser69 peptide […]-SEQ ID NO:35).

[2] = target: T1, Formylglycine Generating Enzyme (FGE) …; assay: affinity chromatography on peptide-derivatized Affigel 10, FGE activity from bovine testis
Excerpt: as §1

[3] = target: T2, 23mer peptide P23 (MTDFYVPVSLCTPSRAALLTGRS)
T2 chain: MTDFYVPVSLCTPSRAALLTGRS

B1: wildtype ASA65-80 peptide (synthetic 16mer corresponding to arylsulfatase A residues 65-80) (peptide)
peptide: PVSLCTPSRAALLTGR
notes: They follow from P23 and from the Ser69 peptide, which is the Cys69 to Ser variant
B1: binds [1].

B2: Ser69 peptide PVSLSTPSRAALLTGR (peptide)
peptide: PVSLSTPSRAALLTGR
notes: also called Ser69 oligopeptide; variant of the ASA65-80 peptide in which Cys69 was replaced by a serine
B2: binds [1].

B3: scrambled peptide PVSLPTRSCAALLTGR (peptide)
peptide: PVSLPTRSCAALLTGR
notes: also called scrambled oligopeptide; variant of the ASA65-80 peptide in which residues Cys69, Pro71 and Arg73 were scrambled
B3: no binding [2].

B4: Formylglycine Generating Enzyme (FGE) purified from bovine testis microsomes (reticuloplasm) (protein)
chain: GEEAGPEAGAPSLVGSCGCGNPQRPGAQGSSAAAHRYSREANAPGSVPGGRPSPPTKMVPIPAGVFTMGTDDPQIKQDGEAPARRVAIDAFYMDAYEVSNAEFEKFVNSTGYLTEAEKFGDSFVFEGMLSEQVKSDIQQAVAAAPWWLPVKGANWRHPEGPDSTVLHRPDHPVLHVSWNDAVAYCTWAGKRLPTEAEWEYSCRGGLQNRLFPWGNKLQPKGQHYANIWQGEFPVTNTGEDGFRGTAPVDAFPPNGYGLYNIVGNAWEWTSDWWTVHHSAEETINPKGPPSGKDRVKKGGSYMCHKSYCYRYRCAARSQNTPDSSASNLGFRCAADHLPTTG
With B4 the “conversion of P23 into a FGly containing derivative (MALDI-TOF)” value [3] was “converted up to 95% of the peptide into a FGly containing derivative” and the km [3] was “The km for P23 was 13 nM”.
